Measurements published in patent US20260201028A1 (SINGAPORE HEALTH SERVICES PTE, published 2026).

Target: human TRPM4 (transient receptor potential melastatin 4) in transfected HEK 293 cells (human, UniProt Q8TD43 1-1214)
Assay: cell-based or functional assay

Sequence of human TRPM4 (transient receptor potential melastatin 4) in transfected HEK 293 cells (Q8TD43 whole entry): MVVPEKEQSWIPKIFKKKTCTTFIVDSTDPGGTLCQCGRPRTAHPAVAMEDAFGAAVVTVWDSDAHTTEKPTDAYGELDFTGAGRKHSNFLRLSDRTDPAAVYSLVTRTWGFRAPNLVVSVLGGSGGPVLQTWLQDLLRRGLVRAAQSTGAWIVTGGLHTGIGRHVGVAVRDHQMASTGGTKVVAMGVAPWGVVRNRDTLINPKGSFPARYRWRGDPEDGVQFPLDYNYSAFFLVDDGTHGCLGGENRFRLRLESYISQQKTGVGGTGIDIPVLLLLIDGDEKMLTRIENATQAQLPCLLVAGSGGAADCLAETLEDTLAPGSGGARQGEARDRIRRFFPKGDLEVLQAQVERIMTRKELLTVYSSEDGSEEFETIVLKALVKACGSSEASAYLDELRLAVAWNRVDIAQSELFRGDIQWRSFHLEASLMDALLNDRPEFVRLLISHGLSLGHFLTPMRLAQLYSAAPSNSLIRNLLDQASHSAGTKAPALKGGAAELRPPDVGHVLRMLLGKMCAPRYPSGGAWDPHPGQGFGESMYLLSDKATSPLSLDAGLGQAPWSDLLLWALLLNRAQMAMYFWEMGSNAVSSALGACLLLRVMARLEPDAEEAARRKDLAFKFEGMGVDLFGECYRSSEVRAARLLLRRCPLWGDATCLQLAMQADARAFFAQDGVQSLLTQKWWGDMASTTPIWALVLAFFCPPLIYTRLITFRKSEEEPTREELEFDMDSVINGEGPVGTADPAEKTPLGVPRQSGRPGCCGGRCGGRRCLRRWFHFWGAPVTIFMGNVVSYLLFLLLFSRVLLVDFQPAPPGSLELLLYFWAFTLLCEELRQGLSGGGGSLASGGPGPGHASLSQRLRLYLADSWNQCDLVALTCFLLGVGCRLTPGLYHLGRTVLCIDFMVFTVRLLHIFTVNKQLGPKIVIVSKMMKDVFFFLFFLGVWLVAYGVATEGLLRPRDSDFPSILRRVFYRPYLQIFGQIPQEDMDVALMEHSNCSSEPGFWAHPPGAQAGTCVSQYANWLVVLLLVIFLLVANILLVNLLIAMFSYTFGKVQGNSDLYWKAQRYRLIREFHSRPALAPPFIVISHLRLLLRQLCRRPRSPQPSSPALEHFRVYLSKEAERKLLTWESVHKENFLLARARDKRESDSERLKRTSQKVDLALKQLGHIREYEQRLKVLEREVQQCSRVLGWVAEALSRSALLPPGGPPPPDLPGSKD

B1: humanized anti-TRPM4 antibody clone A2 (VH1 + VL1) (antibody, human IgG1, kappa, V domains shown)
VH: QVQLQESGPGLVKPSQTLSLTCTVSGYSITSDYAWNWIRQHPGKGLEWIGYLSYSGVTSYNPSLKGRVTISVDTSKNQFSLKLSSVTAADTAVYYCARKGTYYRYEGSYWYFDVWGQGTTVTVSS
VL: DIQMTQSPSSLSASVGDRVTITCHANQNIDVWLSWYQQKPGKAPKLLIYKTSNLHTGVPSRFSGSGSGTDFTFTISSLQPEDIATYYCQQGQSYPLTFGGGTKLEIKR
With B1 the “IC50, dose-dependent inhibition of hypoxia-induced TRPM4 current increase” value was 1.23 µg/mL.
